Measurements published in PMC5764468 (PLoS Biology, 2017).

Biological target: T1, Human calmodulin (CaM) (human, UniProt P0DP23 1-149)
T1 construct: also called full-length CaM
Assay: SEC-SAXS
Conditions: both partners purified

stoichiometry N: 1 P_(MLCK) per CaM
B1: CaM-binding peptide (P_(MLCK)) from the smooth muscle myosin light-chain kinase (peptide)
peptide: Ac-RRKWQKTGHAVRAIGRLSS-NH2
notes: also called myosin light-chain kinase peptide; MLCK peptide
